# Results published in patent US20160185837A1 (AstraZeneca / MedImmune, published 2016).
# Substitutions are numbered along the chain they refer to.
# T1: rat GLP-1 receptor (rat, UniProt P32301 22-463)
# T1 sequence (looked up): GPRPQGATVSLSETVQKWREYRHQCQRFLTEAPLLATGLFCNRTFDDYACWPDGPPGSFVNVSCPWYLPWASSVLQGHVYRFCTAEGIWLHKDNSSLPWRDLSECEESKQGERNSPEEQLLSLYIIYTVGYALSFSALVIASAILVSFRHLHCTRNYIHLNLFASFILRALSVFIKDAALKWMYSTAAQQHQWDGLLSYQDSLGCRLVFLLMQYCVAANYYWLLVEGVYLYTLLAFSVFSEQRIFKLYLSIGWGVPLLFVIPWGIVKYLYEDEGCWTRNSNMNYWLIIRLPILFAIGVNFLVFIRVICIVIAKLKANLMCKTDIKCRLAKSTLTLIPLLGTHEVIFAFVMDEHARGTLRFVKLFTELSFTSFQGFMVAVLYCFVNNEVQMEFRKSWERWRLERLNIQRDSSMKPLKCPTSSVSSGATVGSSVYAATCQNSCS
# T2: human GIP receptor (human, UniProt P48546 22-466)
# T2 sequence (looked up): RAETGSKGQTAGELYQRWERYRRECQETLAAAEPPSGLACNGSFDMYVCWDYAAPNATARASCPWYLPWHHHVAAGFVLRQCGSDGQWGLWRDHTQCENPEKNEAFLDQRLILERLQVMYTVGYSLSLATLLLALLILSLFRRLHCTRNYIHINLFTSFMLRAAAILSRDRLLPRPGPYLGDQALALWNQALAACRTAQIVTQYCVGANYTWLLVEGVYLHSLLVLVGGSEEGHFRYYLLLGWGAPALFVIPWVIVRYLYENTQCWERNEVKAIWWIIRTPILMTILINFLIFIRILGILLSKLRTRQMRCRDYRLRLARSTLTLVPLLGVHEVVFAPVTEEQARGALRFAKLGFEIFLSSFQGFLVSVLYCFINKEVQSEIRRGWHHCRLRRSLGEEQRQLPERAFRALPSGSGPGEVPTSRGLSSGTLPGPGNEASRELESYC
# T3: rat GIP receptor (rat, UniProt P43219 19-455)
# T3 sequence (looked up): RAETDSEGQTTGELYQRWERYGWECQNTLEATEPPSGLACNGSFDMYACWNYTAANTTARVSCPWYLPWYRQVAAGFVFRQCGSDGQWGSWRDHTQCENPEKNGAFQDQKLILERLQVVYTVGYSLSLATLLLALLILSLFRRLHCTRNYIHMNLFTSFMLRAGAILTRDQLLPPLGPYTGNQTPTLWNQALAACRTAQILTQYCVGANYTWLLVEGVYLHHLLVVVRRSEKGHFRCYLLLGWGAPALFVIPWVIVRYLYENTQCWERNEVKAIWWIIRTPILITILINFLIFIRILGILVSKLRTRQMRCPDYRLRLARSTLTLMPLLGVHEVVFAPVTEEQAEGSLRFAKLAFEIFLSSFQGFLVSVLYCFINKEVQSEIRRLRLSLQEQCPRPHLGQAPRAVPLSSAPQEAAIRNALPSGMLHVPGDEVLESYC
# T4: mouse GLP-1 receptor (mouse, UniProt O35659 22-463)
# T4 sequence (looked up): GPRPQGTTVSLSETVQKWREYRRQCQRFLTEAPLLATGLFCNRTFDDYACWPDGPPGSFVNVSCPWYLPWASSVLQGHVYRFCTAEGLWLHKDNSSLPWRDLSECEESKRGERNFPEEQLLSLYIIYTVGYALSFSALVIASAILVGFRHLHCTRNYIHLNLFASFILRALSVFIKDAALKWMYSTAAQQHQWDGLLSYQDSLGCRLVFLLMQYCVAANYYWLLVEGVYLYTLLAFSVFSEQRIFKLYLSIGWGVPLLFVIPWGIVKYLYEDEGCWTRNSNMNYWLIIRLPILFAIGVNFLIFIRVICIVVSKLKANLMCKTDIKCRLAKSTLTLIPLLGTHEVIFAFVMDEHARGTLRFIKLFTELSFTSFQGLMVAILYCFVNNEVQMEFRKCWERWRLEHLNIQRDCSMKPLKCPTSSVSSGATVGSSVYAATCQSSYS
# T5: mouse GIP receptor (mouse, UniProt Q0P543 19-460)
# T5 sequence (looked up): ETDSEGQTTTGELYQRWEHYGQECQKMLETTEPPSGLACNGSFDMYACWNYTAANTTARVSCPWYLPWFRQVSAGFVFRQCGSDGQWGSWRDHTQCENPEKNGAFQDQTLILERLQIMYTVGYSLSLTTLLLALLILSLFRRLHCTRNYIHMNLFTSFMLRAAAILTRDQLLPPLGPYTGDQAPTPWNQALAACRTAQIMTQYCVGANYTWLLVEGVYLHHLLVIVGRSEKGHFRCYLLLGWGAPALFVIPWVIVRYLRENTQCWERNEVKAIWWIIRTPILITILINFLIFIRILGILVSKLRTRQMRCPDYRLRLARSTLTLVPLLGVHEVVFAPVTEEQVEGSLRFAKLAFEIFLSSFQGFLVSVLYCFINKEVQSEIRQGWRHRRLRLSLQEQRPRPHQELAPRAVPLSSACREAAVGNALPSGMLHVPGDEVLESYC
# B1: IP295 (Fc fusion)
# chain: YSEGTFTSDYSKLLEEEAVRLFIEWLLAGGPSSGAPPPSGGGGGSGGGGSGGGGSGGGGSATHTCPPC
# B2: IP322 (Fc fusion)
# chain: YSEGTFTSDYSKLLEEEAVRLFIEWLVKGPGGGGGSGGGGSGGGGSGGGGSGGGGSA
# B3: IP326 (Fc fusion)
# chain: B2 chain with V27L, K28A, P30G
# B4: IP324 (Fc fusion)
# chain: YSEGTFTSDYSKLLEEEAVRLFIEWLVKGPGGGGGSGGGGSGGGGSGGGGSGGGGSGGGGSGGGGSA
# B5: IP325 (Fc fusion)
# chain: YSEGTFTSDYSKLLEEEAVRLFIEWLVKGPGGGGGSGGGGSGGGGSGGGGSGGGGSGGGGSGGGGSGGGGSA
# B6: IP296 (Fc fusion)
# chain: YSEGTFTSDYSKLLEEEAVRCFIEWLVKGGPSSGAPPCSGGGGGGGGGGGGGGGGGGGGGGGGACPPC
# B7: IP297 (Fc fusion)
# chain: YSEGTFTSDYSKLLEEEAVRLFIEWLLAGGGGGGGGGGGGGGGGGGGGGGGGGACPPC
# B8: IP300 (Fc fusion)
# chain: B7 chain with G30A, G31P, G32P
# B9: IP323 (Fc fusion)
# chain: YSEGTFTSDYSKLLEEEAVRLFIEWLVKGPGGGGGSGGGGSGGGGSGGGGSGGGGSGGGGSA
# B10: IP327 (Fc fusion)
# chain: B9 chain with V27L, K28A, P30G
# B11: IP294 (Fc fusion)
# chain: YSEGTFTSDYSKLLEEEAVRLFICWLVCGPGGGGGGGGGGGGGGGGGGGGACPPC
# B12: IP213 (Fc fusion)
# chain: YSEGTFTSDYSKLLEEEAVRLFIEWLLAGGAAAGGSGSTASSGSGSATGGGGAATHTCPPCPAPEF
# B13: IP087 (Fc fusion)
# chain: B12 chain with G30P
# Target: T1, rat GLP-1 receptor
# Assay: cell-based or functional assay
Binder,cAMP EC50,"cAMP EC50, Batch 2","cAMP EC50, Batch 3","cAMP EC50, Batch 4"
B1,23 pM,18 pM,28.6 pM,–
B2,25 pM,–,–,–
B3,39 pM,–,–,–
B4,40 pM,36.3 pM,–,–
B5,35 pM,51.9 pM,–,–
B6,55 pM,28 pM,–,27 pM
B7,28 pM,–,–,–
B8,27 pM,–,–,–
B9,19 pM,–,–,–
B10,32 pM,–,–,–
B11,7100 pM,–,–,–
B12,87 pM,–,–,–
B13,110 pM,–,–,–

# Target: T2, human GIP receptor
# Assay: cell-based or functional assay
Binder,cAMP EC50,"cAMP EC50, Batch 2","cAMP EC50, Batch 3","cAMP EC50, Batch 4"
B1,4.3 pM,12 pM,8.6 pM,–
B2,26 pM,–,–,–
B3,27 pM,–,–,–
B4,37 pM,16 pM,–,–
B5,37 pM,18 pM,–,–
B6,18 pM,21 pM,14 pM,11 pM
B7,15 pM,–,–,–
B8,13 pM,–,–,–
B9,17 pM,–,–,–
B10,16 pM,–,–,–
B11,1300 pM,–,–,–
B12,5.9 pM,–,–,–
B13,8.6 pM,–,–,–

# Target: T3, rat GIP receptor
# Assay: cell-based or functional assay
Binder,cAMP EC50,"cAMP EC50, Batch 2","cAMP EC50, Batch 3","cAMP EC50, Batch 4"
B1,41 pM,65.8 pM,25 pM,–
B2,110 pM,–,–,–
B3,37 pM,–,–,–
B4,140 pM,141 pM,–,–
B5,130 pM,154 pM,–,–
B6,460 pM,–,–,140 pM
B7,89 pM,–,–,–
B8,69 pM,–,–,–
B9,82 pM,–,–,–
B10,28 pM,–,–,–
B11,100000 pM,–,–,–
B12,54 pM,–,–,–
B13,170 pM,–,–,–

# Target: human GLP-1 receptor (human, UniProt P43220 24-463)
# Assay: cell-based or functional assay
Binder,cAMP EC50,"cAMP EC50, Batch 2","cAMP EC50, Batch 3","cAMP EC50, Batch 4"
B1,91 pM,140 pM,150 pM,–
B2,290 pM,–,–,–
B3,370 pM,–,–,–
B4,400 pM,140 pM,–,–
B5,460 pM,160 pM,–,–
B6,570 pM,390 pM,370 pM,290 pM
B7,190 pM,–,–,–
B8,210 pM,–,–,–
B9,200 pM,–,–,–
B10,250 pM,–,–,–
B11,27000 pM,–,–,–
B12,87 pM,–,–,–
B13,280 pM,–,–,–

# Target: T4, mouse GLP-1 receptor
# Assay: cell-based or functional assay
Binder,cAMP EC50,"cAMP EC50, Batch 2","cAMP EC50, Batch 3","cAMP EC50, Batch 4"
B1,350 pM,241 pM,340 pM,–
B2,410 pM,–,–,–
B3,870 pM,–,–,–
B4,720 pM,391 pM,–,–
B5,640 pM,488 pM,–,–
B6,1400 pM,600 pM,–,640 pM
B7,820 pM,–,–,–
B8,940 pM,–,–,–
B9,340 pM,–,–,–
B10,700 pM,–,–,–
B11,350000 pM,–,–,–
B12,820 pM,–,–,–
B13,1200 pM,–,–,–

# Target: human glucagon receptor (human, UniProt P47871 26-477)
# Assay: cell-based or functional assay
Binder,cAMP EC50,"cAMP EC50, Batch 2","cAMP EC50, Batch 3","cAMP EC50, Batch 4"
B1,41 nM,32 nM,23 nM,–
B2,260 nM,–,–,–
B3,15 nM,–,–,–
B4,470 nM,120 nM,–,–
B5,> 455 nM,110 nM,–,–
B6,> 1120 nM,> 784 nM,> 4490 nM,6.7 µM
B7,31 nM,–,–,–
B8,21 nM,–,–,–
B9,190 nM,–,–,–
B10,10 nM,–,–,–
B11,> 6810 nM,–,–,–
B12,18 nM,–,–,–
B13,9.6 nM,–,–,–

# Target: T5, mouse GIP receptor
# Assay: cell-based or functional assay
Binder,cAMP EC50,"cAMP EC50, Batch 2","cAMP EC50, Batch 3","cAMP EC50, Batch 4"
B1,0.66 nM,1.2 nM,571 pM,–
B2,8.3 nM,–,–,–
B3,1.7 nM,–,–,–
B4,240 nM,67.5 nM,–,–
B5,170 nM,57.2 nM,–,–
B6,110 nM,55 nM,–,65 nM
B7,8.1 nM,–,–,–
B8,0.9 nM,–,–,–
B9,65 nM,–,–,–
B10,1.2 nM,–,–,–
B11,> 6800 nM,–,–,–
B12,2.5 nM,–,–,–
B13,5.7 nM,–,–,–
